Results taken from patent US20110275569A1, “PROTEASES TARGETING AGENTS” (CONSIGLIO NAZIONALE DELLE RICERCHE, priority 2008, published 2011).

B1: TFS1: protein of the yeast, founder of the family I51, able to inhibit the carboxypeptidase Y (protein, UniProt P14306 1-219, looked up)
Carboxypeptidase Y inhibitor: MNQAIDFAQASIDSYKKHGILEDVIHDTSFQPSGILAVEYSSSAPVAMGNTLPTEKARSKPQFQFTFNKQMQKSVPQANAYVPQDDDLFTLVMTDPDAPSKTDHKWSEFCHLVECDLKLLNEATHETSGATEFFASEFNTKGSNTLIEYMGPAPPKGSGPHRYVFLLYKQPKGVDSSKFSKIKDRPNWGYGTPATGVGKWAKENNLQLVASNFFYAETK
B2: Sso0767: recombinant protease inhibitor protein from Sulfolobus solfataricus, PEBP family I51, monomer of 19.0 kDa, 157 amino acids (protein, listed as Sulfolobus solfataricus)
chain: MNSESIYSMRVVSSAFKNEDFIPIKYTCDGQDLSPELEWDLVTNAKSYAIIVEDPDAPGGTFIHWVIYNITTNRLPEGVPRLYKSQYGVQGVNDFGNIGYNGPCPPKTHPPHRYYFYVYAIDTILLEIKNINADKLKSLMEGHGIERGFVMGKYKRK

Legend:
carboxypeptidase Y [1] = target: T1, carboxypeptidase Y (Saccharomyces cerevisiae, UniProt P00729); conditions: read-out: inhibition constant, carboxypeptidase Y; cited from earlier work
T1 sequence (P00729 112-532): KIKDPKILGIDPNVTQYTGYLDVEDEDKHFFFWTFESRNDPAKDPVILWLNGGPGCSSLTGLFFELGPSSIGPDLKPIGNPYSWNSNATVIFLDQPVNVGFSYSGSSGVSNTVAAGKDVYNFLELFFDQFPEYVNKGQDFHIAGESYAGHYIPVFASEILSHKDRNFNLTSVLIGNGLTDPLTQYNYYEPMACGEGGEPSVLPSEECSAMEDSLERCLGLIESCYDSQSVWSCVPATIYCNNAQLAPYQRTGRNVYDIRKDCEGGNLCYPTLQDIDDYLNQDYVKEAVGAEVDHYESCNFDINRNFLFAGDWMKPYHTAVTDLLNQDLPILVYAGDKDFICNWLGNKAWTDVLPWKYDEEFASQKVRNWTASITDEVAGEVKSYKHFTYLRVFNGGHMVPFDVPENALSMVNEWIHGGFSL

trypsin = experiment: Protease specificity panel: trypsin; format: biochemical
Protocol: (§1) To identify the biological function of the purified inhibitor Sso0767 (SsCEI), the ability to inhibit a number of proteases was tested. The set of the proteases examined includes: the alpha-chymotrypsin, trypsin, elastase, carboxypeptidase Y, subtilisin, thrombin and two thermophilic proteases, the kumamolisin-ac and pernisine. […] The specific interaction between the inhibitor and the target proteases was also examined by incubating Sso1273 in a reaction mixture containing all the proteases investigated. In these conditions, the catalytic performance of the inhibitor was identical to that observed by assaying each protease alone.

porcine elastase = porcine elastase (Sus scrofa, UniProt P00772); experiment: Inhibition of porcine elastase by the S. solfataricus inhibitor; format: biochemical
Protocol: as §1
(§2) In Table II are reported Ki and IC50 values that are the average of 3-5 separate determinations.

carboxypeptidase Y [2] = target: T1, carboxypeptidase Y; experiment: Protease specificity panel: carboxypeptidase Y; format: biochemical
Protocol: as §1

[3] = Stability of the purified inhibitor (heat, denaturants, digestive proteases); format: physicochemical
thrombin = experiment: Protease specificity panel: thrombin; format: biochemical
Protocol: as §1

subtilisin = experiment: Protease specificity panel: subtilisin; format: biochemical
Protocol: as §1

bovine α-chymotrypsin = bovine α-chymotrypsin (Bos taurus, UniProt P00766); experiment: Inhibition of bovine alpha-chymotrypsin by the S. solfataricus inhibitor; format: biochemical
Protocol: as §1
The inhibition of Sso1273 (SsCEI) versus α-chymotrypsin followed a hyperbolic pattern with increasing concentrations of the inhibitor and the IC50 value (50% inhibitory concentration) was 0.10 μM (Table II).
The reciprocals of the rate of the substrate hydrolysis for each inhibitor concentration were plotted against the reciprocals of the substrate concentrations. Ki was determined from the formula as per the competitive type of inhibition.
as §2

Sequence of porcine elastase (P00772 27-266): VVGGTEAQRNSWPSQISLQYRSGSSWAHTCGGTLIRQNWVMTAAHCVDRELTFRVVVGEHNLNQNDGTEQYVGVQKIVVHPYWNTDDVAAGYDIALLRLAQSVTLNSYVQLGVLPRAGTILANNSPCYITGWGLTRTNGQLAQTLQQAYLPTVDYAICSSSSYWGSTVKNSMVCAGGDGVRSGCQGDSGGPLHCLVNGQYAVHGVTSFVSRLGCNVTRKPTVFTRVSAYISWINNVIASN

Molecule	Ki (carboxypeptidase Y [1]) [nM]	effect on trypsin (trypsin)	inhibition activity versus elastase (in words) (porcine elastase)	effect on carboxypeptidase Y (carboxypeptidase Y [2])	resistance to common protein denaturants [3]	thermostability: inhibitory activity after incubation ([3]; 4 days at 90° C.)	resistance to digestive proteases ([3]; several digestive proteases)	effect on thrombin (thrombin)	effect on subtilisin (subtilisin)	inhibition activity toward α-chymotrypsin (in words) (bovine α-chymotrypsin)	type of inhibition of α-chymotrypsin (bovine α-chymotrypsin; Lineweaver-Burk reciprocal plot)
B1	1.8										
B2		not affected	clear activity	not affected	high resistance	no reduction in inhibitory activity	resistant	not affected	not affected	best target protease among those tested	competitive inhibitor
